# From the RNAGym collection of RNA variant scans (doi:10.1093/molbev/msab373)
# B1: Azoarcus group I ribozyme (parent)
# chain: GUGCCUUGCGCCGGGAAACCACGCAAGGGAUGGUGUCAAAUUCGGCGAAACCUAAGCGCCCGCCCGGGCGUAUGGCAACGCCGAGCCAAGCUUCGGCGCCUGCGCCGAUGAAGGUGUAGAGACUAGACGGCACCCACCUAAGGCAAACGCUAUGGUGAAGGCAUAGUCCAGGGAGUGGCGAAAGUCACACAAACCGG
# Variants of: B1
# Assay: reverse-splicing fitness (ratio to wild type); higher = more active; in vitro selection; Mg2+ level not given
# Method in brief: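 An in vitro group I ribozyme library with randomized positions was T7-transcribed and gel-purified. In triplicate, 10 pmol RNA in EPPS pH 7.5 was reacted with 50 pmoles of a 30-nt RNA substrate for 1 h at 37 °C across several added MgCl2 levels (1–48 mM), then stopped with EDTA. Products were reverse transcribed from a substrate-complementary primer, PCR-amplified and sequenced (HiSeq 4000). Fitness is a variant's read proportion after selection over that before, normalised to wild type.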
row,Variant,reverse-splicing fitness
1,C82G A111U A120C C150G C169A,0.00975
2,C82G A111U A120C C150G C169G,0.00753
3,C82G A111U A120C C150G C169U,0.0106
4,C82G A111U A120C C169U U176G,0.00561
5,C82G A111U A120C C169U U176A,0.0163
6,C82G A111U A120C C169U U176C,0.0166
7,C82G A111U A120G A145U,0.0161
8,C82G A111U A120G A145C,0.0134
9,C82G A111U A120G A145G,0.0151
10,C82G A111U A120G A145G C150U U176A,0.00946
11,C82G A111U A120G A145G C150U U176C,0.0167
12,C82G A111U A120G A145G C150U U176G,0.00777
13,C82G A111U A120G C150U C169G U176G,0.0053
14,C82G A111U A120G C150U C169G U176C,0.0205
15,C82G A111U A120G C150U C169G U176A,0.0168
16,C82G A111U A120G A145C C169G,0.0125
17,C82G A111U A120G A145C C169A,0.00794
18,C82G A111U A120G A145C C169U,0.00836
19,C82G A111U A120G A145C C150A C169G U176A,0.0229
20,C82G A111U A120G A145C C150A C169G U176G,0.00516
21,C82G A111U A120G A145C C150A C169G U176C,0.0144

row,Variant,reverse-splicing fitness
1,C82G A111U A120G A145C C150A C169A U176A,0.0145
2,C82G A111U A120G A145C C150A C169A U176C,0.00752
3,C82G A111U A120G A145C C150A C169A U176G,0.00583
4,C82G A111U A120G C150G C169U U176C,0.0123
5,C82G A111U A120G C150G C169U U176A,0.00893
6,C82G A111U A120G C150G C169U U176G,0.00592
7,C82G A111U A120C C150G C169U U176C,0.013
8,C82G A111U A120C C150G C169U U176A,0.00756
9,C82G A111U A120C C150G C169U U176G,0.00705
10,C82G A111U A120G A145C C150G C169G U176A,0.00853
11,C82G A111U A120G A145C C150G C169G U176G,0.00464
12,C82G A111U A120G A145C C150G C169G U176C,0.00745
13,C82G A111U A120G A145U C150A C169G,0.00835
14,C82G A111U A120G A145U C150A C169A,0.00975
15,C82G A111U A120G A145U C150A C169U,0.00711
16,C82G A111U A120G A145G C150A U176A,0.011
17,C82G A111U A120G A145G C150A U176C,0.0219
18,C82G A111U A120G A145G C150A U176G,0.00873
19,C82G A111U A120C C150A C169A U176C,0.0217
20,C82G A111U A120C C150A C169A U176G,0.00867
21,C82G A111U A120C C150A C169A U176A,0.0237

row,Variant,reverse-splicing fitness
1,C82G A111U A120G A145U C150A U176C,0.0173
2,C82G A111U A120G A145U C150A U176G,0.00661
3,C82G A111U A120G A145U C150A U176A,0.0108
4,C82G A111U A120C A145U C169G U176G,0.00535
5,C82G A111U A120C A145U C169G U176C,0.0213
6,C82G A111U A120C A145U C169G U176A,0.0154
7,C82G A111U A120G A145C C150U C169G U176A,0.023
8,C82G A111U A120G A145C C150U C169G U176C,0.0136
9,C82G A111U A120G A145C C150U C169G U176G,0.00518
10,C82G A111U A120C C150A C169G U176C,0.0267
11,C82G A111U A120C C150A C169G U176A,0.0181
12,C82G A111U A120C C150A C169G U176G,0.00701
13,C82G A111U A120G C150G C169A U176A,0.0115
14,C82G A111U A120G C150G C169A U176C,0.0111
15,C82G A111U A120G C150G C169A U176G,0.00726
16,C82G A111U A120G A145U C169U,0.01
17,C82G A111U A120G A145U C169G,0.0137
18,C82G A111U A120G A145U C169A,0.00825
19,C82G A111U A120G A145G C150A C169A,0.0109
20,C82G A111U A120G A145G C150A C169U,0.00945
21,C82G A111U A120G A145G C150A C169G,0.00903

row,Variant,reverse-splicing fitness
1,C82G A111U A120G C150A U176A,0.0143
2,C82G A111U A120G C150A U176C,0.0195
3,C82G A111U A120G C150A U176G,0.0103
4,C82G A111U A120G A145U C150G C169U U176C,0.013
5,C82G A111U A120G A145U C150G C169U U176G,0.00505
6,C82G A111U A120G A145U C150G C169U U176A,0.0111
7,C82G A111U A120G C150A C169G U176C,0.0245
8,C82G A111U A120G C150A C169G U176A,0.0227
9,C82G A111U A120G C150A C169G U176G,0.00607
10,C82G A111U A120G A145U C150A C169G U176A,0.0162
11,C82G A111U A120G A145U C150A C169G U176C,0.0163
12,C82G A111U A120G A145U C150A C169G U176G,0.00501
13,C82G A111U A120G C150A C169G,0.0106
14,C82G A111U A120G C150A C169A,0.0117
15,C82G A111U A120G C150A C169U,0.00827
16,C82G A111U A120C C150G C169G U176G,0.00747
17,C82G A111U A120C C150G C169G U176A,0.00766
18,C82G A111U A120C C150G C169G U176C,0.00622
19,C82G A111U A120C C150U U176C,0.0248
20,C82G A111U A120C C150U U176A,0.0133
21,C82G A111U A120C C150U U176G,0.00892
